Where a chain is given by its changes, count along the chain named.
B1: TPP-29528 (antibody, mouse IgG1)
heavy: EVQLLESGGGLVQPGGSLRLSCAASGFTFSSYGMHWVRQAPGKGLEWVAVISYDGSYKYYADSVKGRFTISRDNSKNTLYLQMNSLRAEDTAVYYCAAGVPDYWGQGTLVTVSSAKTTPPSVYPLAPGSAAQTNSMVTLGCLVKGYFPEPVTVTWNSGSLSSGVHTFPAVLQSDLYTLSSSVTVPSSTWPSETVTCNVAHPASSTKVDKKIVPRDCGCKPCICTVPEVSSVFIFPPKPKDVLTITLTPKVTCVVVDISKDDPEVQFSWFVDDVEVHTAQTQPREEQFNSTFRSVSELPIMHQDWLNGKEFKCRVNSAAFPAPIEKTISKTKGRPKAPQVYTIPPPKEQMAKDKVSLTCMITDFFPEDITVEWQWNGQPAENYKNTQPIMDTDGSYFVYSKLNVQKSNWEAGNTFTCSVLHEGLHNHHTEKSLSHSPGK
light: QSVLTQPPSASGTPGQRVTISCSGSSSNIGSDYDVHWYQQLPGTAPKLLIYSNEERPSGVPDRFSGSKSGTSASLAISGLRSEDEADYYCSAWDSSLSGPVFGGGTKLTVLGQPKSSPSVTLFPPSSEELETNKATLVCTITDFYPGVVTVDWKVDGTPVTQGMETTQPSKQSNNKYMASSYLTLTARAWERHSSYSCQVTHEGHTVEKSLSRADCS
notes: mIgG1, Lambda
B2: TPP-29523 (antibody, mouse IgG1)
heavy: QVQLVESGGGVVQPGRSLRLSCAASGFTFSHYDMHWVRQAPGKGLEWVAVISYEGSVKFYADSVKGRFTISRDNSKNTLYLQMNSLRAEDTAVYYCARTPGFHFDYWGQGTLVTVSSAKTTPPSVYPLAPGSAAQTNSMVTLGCLVKGYFPEPVTVTWNSGSLSSGVHTFPAVLQSDLYTLSSSVTVPSSTWPSETVTCNVAHPASSTKVDKKIVPRDCGCKPCICTVPEVSSVFIFPPKPKDVLTITLTPKVTCVVVDISKDDPEVQFSWFVDDVEVHTAQTQPREEQFNSTFRSVSELPIMHQDWLNGKEFKCRVNSAAFPAPIEKTISKTKGRPKAPQVYTIPPPKEQMAKDKVSLTCMITDFFPEDITVEWQWNGQPAENYKNTQPIMDTDGSYFVYSKLNVQKSNWEAGNTFTCSVLHEGLHNHHTEKSLSHSPGK
light: QSVLTQPPSASGTPGQRVTISCSGSSSNIGSNYVNWYQQLPGTAPKLLIYYDDLRPSGVPDRFSGSKSGTSASLAISGLRSEDEADYYCSAWDDSLSGVVFGGGTKLTVLGQPKSSPSVTLFPPSSEELETNKATLVCTITDFYPGVVTVDWKVDGTPVTQGMETTQPSKQSNNKYMASSYLTLTARAWERHSSYSCQVTHEGHTVEKSLSRADCS
notes: mIgG1, Lambda
B3: TPP-29521 (antibody, mouse IgG1)
heavy: B2 heavy with V57N
light: B2 light with N35S
notes: mIgG1, Lambda
B4: TPP-29520 (antibody, mouse IgG1)
heavy: B2 heavy with E54S, F102S
light: B2 light
notes: mIgG1, Lambda
B5: TPP-29519 (antibody, mouse IgG1)
heavy: B2 heavy with E54H
light: B2 light with N35S
notes: mIgG1, Lambda
B6: TPP-29522 (antibody, mouse IgG1)
heavy: B2 heavy with V57N
light: B2 light
notes: mIgG1, Lambda

target: T1, murine IL-11 (mouse, UniProt P47873 22-199); test: SPR 37 C, antibody captured, IL-11 as analyte
T1 construct: Invigate, e.g. lot #C210819-09; biotinylated where coated in the ELISA; also called mIL-11; mIL11
T1 sequence: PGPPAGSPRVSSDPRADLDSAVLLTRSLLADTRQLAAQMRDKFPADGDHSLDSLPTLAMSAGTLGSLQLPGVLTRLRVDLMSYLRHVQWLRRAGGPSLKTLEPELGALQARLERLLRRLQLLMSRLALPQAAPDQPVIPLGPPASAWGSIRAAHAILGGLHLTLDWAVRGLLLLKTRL
Procedure: (§1) To assess the binding kinetics and affinity of anti-IL-11 antibodies as well as their species cross-reactivity profile, binding assays were conducted using surface plasmon resonance (SPR). Binding assays were performed on a Biacore T200 instrument or on a Biacore 8K+ instrument (Cytiva) at 37° C. using assay buffer HBS EP+, 300 mM NaCl, 1 mg/ml BSA, 0.05% NaN3. Antibodies were captured either via anti-human Fc IgGs (“Human antibody capture kit”, Order No. BR100839, Cytiva) or via anti-mouse Fc IgGs (“Mouse antibody capture kit, Order No. BR100383, Cytiva) covalently amine coupled to a Series S CM5 sensor chip (Cytiva) depending on the isotype. The amine coupling was carried out according to the manufacturer's instructions using 1-ethyl-3-(3-dimethylaminopropyl) carbodiimide hydrochloride (EDC), N-hydroxysuccinimide (NHS) and ethanolamine HCl, pH 8.5 (“Amine Coupling Kit” BR-1000-50, Cytiva.). Human, mouse, cynomolgus or rat IL-11 was used as analyte at several dilutions within the concentration range from 0.05-200 nM. For binding assays with only one concentration 200 nM IL-11 was used. The sensor surface was regenerated with glycine pH 1.7 after each antigen injection. Obtained sensorgrams were double referenced (subtraction of reference flow cell signal and buffer injection) and were fitted to a 1:1 Langmuir binding model to derive kinetic data using the Biacore T200 Evaluation software or the Biacore Insight software. If no value is reported, there was either no binding or very low binding and multiphasic binding behavior. Values below 1E-12 were considered to be below the dynamic range of the instrument and set to <1E-12.

Binder | Kd [nM]
B1 | 0.23
B2 | 0.004
B3 | 0.098
B4 | 0.11
B5 | 0.0035
B6 | 0.029

target: T2, rat IL-11 (rat, UniProt Q99MF5 22-199); test: SPR 37 C, antibody captured, IL-11 as analyte
T2 construct: Invigate, e.g. lot #C301019-19; also called rIL11
T2 sequence: T1 sequence with S50N, L84F, G94A, V137A, I138V
Procedure: as §1

Binder | Kd [nM]
B1 | 0.33
B2 | 0.02
B3 | 2.1
B4 | 0.29
B5 | 0.023
B6 | 0.34

target: T3, human IL-11 (human, UniProt P20809 22-199); test: SPR 37 C, antibody captured, IL-11 as analyte
T3 construct: Invigate, e.g. lot #C121021-19; biotinylated where coated in the ELISA; also called hIL-11; hIL11
T3 sequence: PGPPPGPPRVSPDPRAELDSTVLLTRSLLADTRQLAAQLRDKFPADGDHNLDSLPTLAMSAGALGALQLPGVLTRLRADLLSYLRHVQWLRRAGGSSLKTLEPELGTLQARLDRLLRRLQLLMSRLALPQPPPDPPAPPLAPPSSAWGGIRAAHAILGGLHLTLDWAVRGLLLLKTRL
Procedure: as §1

Binder | Kd [nM]
B1 | 0.34
B2 | 0.0026
B3 | 0.18
B4 | 0.09
B5 | 0.01
B6 | 0.034

target: T4, cynomolgus IL-11 (cynomolgus, UniProt P20808 22-199); test: SPR 37 C, antibody captured, IL-11 as analyte
T4 construct: Invigate, lot #C290621-19; also called cIL11; cynoL-11
T4 sequence: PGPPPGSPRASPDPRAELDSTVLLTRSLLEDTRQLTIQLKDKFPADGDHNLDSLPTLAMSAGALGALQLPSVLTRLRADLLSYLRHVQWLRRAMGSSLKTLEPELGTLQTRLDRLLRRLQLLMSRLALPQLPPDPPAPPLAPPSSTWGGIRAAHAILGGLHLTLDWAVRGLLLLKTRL
Procedure: as §1

Binder | Kd [nM] | binding result
B1 | 0.2 | 
B2 | 1.1 | 
B3 |  | no binding (tested: IL-11 up to 200 nM)
B4 |  | no binding (tested: IL-11 up to 200 nM)
B5 | 0.61 | 
B6 | 24 | 

target: T1, murine IL-11; test: Di-complex ELISA, competitor canine IL11RA-Fc on coated IL-11;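 for Efficacy (%): signal drop relative to signal at lowest antibody concentration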
Procedure: (§2) The assay is performed using streptavidin coated microtiter plates (Greiner bio-one, #781997). In a first step, 10 nM biotinylated mouse IL-11 (Invigate, Germany, e.g., lot #C210819-09) or human IL-11 (Invigate, Germany, e.g., lot #C121021-19) is coated in 25 μl PBS on the plate at 4° C. overnight. Next day, the plate is washed three times with 50 μl PBST and then blocked with 50 μl SmartBlock (Candor, #113125) for one hour at room temperature (RT). After additional three washes with PBST, 25 μl of a mixture of the murine anti IL-11 antibody and recombinant canine IL11RA-Fc fusion protein (Sino Biological, #70078-D02H) in PBS-T, 10% Smartblock are added simultaneously to the plate and incubated for one hour at RT. […] After three additional washes with PBS-T, 25 μl anti-human-POD (Sigma, #A0170) in PBS-T, 10% Smartblock is added and incubated for 1 hour at RT. After a final three washes with PBS-T, 25 μl AmplexRed (Fisher Scientific, A12222), 1/1000 in PBS, 0,003% H₂O₂, is added as substrate and incubated for 15 min at RT in the dark. Then, the fluorescence is measured with a plate reader at 535/595 nm. Signals from dose responses were used to calculate IC50 values (GraphPad Prism). Efficacy was calculated as [(signal measured at lowest antibody concentration−signal measured at the highest antibody concentration)×100] divided by (signal measured at lowest antibody concentration−signal measured in the absence of IL11Ra).
(§3) IgG converted antibodies were subjected to the experimental assay procedure described in Example 18.

Binder | Efficacy (%) | IC50 [nM]
B1 | 43.4 | 2.6
B2 | 4.8 | 
B3 | 12.1 | 
B4 | 1.1 | 
B5 | 12.8 | 
B6 | 3.6 | 

target: T3, human IL-11; test: as above
Procedure: as §2, §3

Binder | Efficacy (%)
B1 | 36.3
B2 | 2
B3 | 1.7
B4 | 0.3
B5 | 6.8
B6 | 0

target: T1, murine IL-11; test: cell-based or functional assay

Binder | RGA Efficacy (%) | RGA IC50 [nM]
B1 | 96.9 | 0.89
B2 | 101 | 1.4
B3 | 103 | 0.76
B4 | 100 | 0.91
B5 | 101 | 1.2
B6 | 101 | 0.78

target: T2, rat IL-11; test: cell-based or functional assay

Binder | RGA Efficacy (%) | RGA IC50 [nM]
B1 | 89.9 | 1.8
B2 | 101 | 1.4
B3 | 98.9 | 1.8
B4 | 101 | 1.3
B5 | 99.7 | 1
B6 | 101 | 1.6

target: T3, human IL-11; test: cell-based or functional assay

Binder | RGA Efficacy (%) | RGA IC50 [nM]
B1 | 81.2 | 
B2 | 100 | 1.6
B3 | 99.2 | 1.9
B4 | 99.7 | 1.7
B5 | 100 | 1.8
B6 | 98.6 | 1.6

target: T4, cynomolgus IL-11; test: cell-based or functional assay

Binder | RGA Efficacy (%) | RGA IC50 [nM]
B1 | 87.8 | 0.44
B2 | 97.2 | 0.68
B3 | 60 | 
B4 | 58.6 | 
B5 | 99.2 | 0.89
B6 | 52 | 

Source: patent US20240317847A1 (Bayer, published 2024)
